The source of these data is patent US20250250330A1 (REVOPSIS THERAPEUTICS, published 2025).

Experiment [1] concerns the target T1, His-tagged recombinant human ANG-2 (AcroBiosystems, Cat #AN2-H52H4) (human, UniProt O15123 275-496).
T1 construct: also called rhANG-2; rhANG-2-His; not shown: His tag
T1 sequence (looked up): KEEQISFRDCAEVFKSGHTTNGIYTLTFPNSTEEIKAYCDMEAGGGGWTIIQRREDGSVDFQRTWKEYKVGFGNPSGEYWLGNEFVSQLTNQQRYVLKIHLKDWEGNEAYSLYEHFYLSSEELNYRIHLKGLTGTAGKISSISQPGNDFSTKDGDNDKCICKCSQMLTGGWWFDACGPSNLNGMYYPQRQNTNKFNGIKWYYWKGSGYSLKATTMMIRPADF
The experiment is described as follows: competition ELISA; His-tagged rhANG-2 in solution, competitor coated rhTie-2-Fc. For orientation: An ELISA detects its analyte on a solid surface through an enzyme-linked reagent.

Experiment [2] deals with T2, Recombinant human ANG-2 (R&D Systems, Cat #623-AN-025/CF) (human, UniProt O15123 19-496, limits assumed).
T2 construct: also called rhANG-2
T2 sequence (looked up): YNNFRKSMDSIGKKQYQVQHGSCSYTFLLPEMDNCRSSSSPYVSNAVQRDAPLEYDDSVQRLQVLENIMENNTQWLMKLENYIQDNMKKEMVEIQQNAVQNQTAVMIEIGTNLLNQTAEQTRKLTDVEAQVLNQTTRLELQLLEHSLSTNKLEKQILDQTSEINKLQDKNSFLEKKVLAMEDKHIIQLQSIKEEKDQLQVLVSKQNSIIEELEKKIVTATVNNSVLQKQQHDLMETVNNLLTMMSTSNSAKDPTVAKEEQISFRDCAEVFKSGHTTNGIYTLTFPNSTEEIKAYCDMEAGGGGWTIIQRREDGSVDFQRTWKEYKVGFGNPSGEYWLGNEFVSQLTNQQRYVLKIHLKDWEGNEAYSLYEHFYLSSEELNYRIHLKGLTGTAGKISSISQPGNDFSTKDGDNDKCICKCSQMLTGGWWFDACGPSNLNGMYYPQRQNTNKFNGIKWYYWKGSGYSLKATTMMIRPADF
In words: ELISA on rhANG-2 by an independent team; average of three values.

Experiment [3] deals with T3, rrANG-2 (rabbit; Speed Biosystems_YCP8015) (Rabbit, UniProt G1T9B3 19-496).
T3 construct: Bought protein; also called Rabbit ANG-2
T3 sequence: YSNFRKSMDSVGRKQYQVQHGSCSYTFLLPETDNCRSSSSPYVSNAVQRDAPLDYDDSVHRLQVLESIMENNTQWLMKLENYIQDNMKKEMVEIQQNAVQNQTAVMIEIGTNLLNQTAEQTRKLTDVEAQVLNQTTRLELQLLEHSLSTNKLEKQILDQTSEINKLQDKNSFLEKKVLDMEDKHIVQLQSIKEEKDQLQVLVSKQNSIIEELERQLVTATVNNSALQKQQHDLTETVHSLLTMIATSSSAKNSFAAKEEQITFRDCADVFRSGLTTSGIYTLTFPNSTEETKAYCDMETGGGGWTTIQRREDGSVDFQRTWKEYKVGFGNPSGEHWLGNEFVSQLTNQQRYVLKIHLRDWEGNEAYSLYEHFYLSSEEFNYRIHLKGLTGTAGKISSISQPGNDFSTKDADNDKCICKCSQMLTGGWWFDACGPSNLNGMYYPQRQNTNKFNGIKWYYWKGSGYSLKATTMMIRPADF
In words: ELISA on coated rabbit ANG-2.

The target of experiment [4] is T4, rhPlGF-1 (Peprotech_100-06) (human, UniProt P49763-2 19-149).
T4 construct: Bought protein; also called rhPIGF-1; PIGF-1
T4 sequence (looked up): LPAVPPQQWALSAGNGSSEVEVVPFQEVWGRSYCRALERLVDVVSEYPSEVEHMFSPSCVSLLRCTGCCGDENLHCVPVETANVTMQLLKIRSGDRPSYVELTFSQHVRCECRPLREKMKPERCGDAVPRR
In words: ELISA: rhPlGF-1_Peprotech coated at 1 ug/mL, RO-101_Sample 1 from 100 nM in 1:3 dilutions, detected with anti-human IgG Fc-gamma-HRP. The protocol: Third, the binding to rhPIGF-1 or rhPIGF-3 was tested in comparison with rhVEGF₁₆₅. Target proteins were used to coat Corning 9017 medium binding plates at 1 μg/mL and 100 μl per well. […] Donkey anti-human IgG Fcγ-HRP was used for detection. OD450 nm readings were measured by Victor 3.

Experiment [5] deals with T5, rrVEGF165 (rabbit; Kingfisher Biotech_RP1025U-025) (Rabbit, UniProt P49151 27-190 (pig entry)).
T5 construct: Bought protein; also called Rabbit VEGF-A
T5 chain: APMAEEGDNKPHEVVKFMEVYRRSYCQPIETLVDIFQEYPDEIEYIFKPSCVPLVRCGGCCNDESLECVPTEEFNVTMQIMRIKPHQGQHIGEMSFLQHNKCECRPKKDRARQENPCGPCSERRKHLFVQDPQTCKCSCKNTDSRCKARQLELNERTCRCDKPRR
The experiment is described as follows: ELISA on coated rabbit VEGF-A.

The target of experiment [6] is T6, Recombinant human VEGF165 (Peprotech, Cat #100-20) (human, UniProt P15692-4 27-191).
T6 construct: Bought protein; also called rhVEGF165; rh VEGF165
The experiment is described as follows: ELISA on coated human VEGF-A (rhVEGF165).

In experiment [7] the target is T2, Recombinant human ANG-2 (R&D Systems, …). The experiment is described as follows: ELISA on rhANG-2 by an independent team; first of three runs by an independent team (average 0.0491 nM).
The target in experiment [8] is T6, Recombinant human VEGF165 (Peprotech, …). In words: competition ELISA; IC50 ratio against Faricimab for inhibition of VEGF165-VEGF R2/KDR binding. The protocol:
The mixture was added to ELISA binding plates which contained rhVEGF₁₆₅ coating. […] The receptor binding was detected by HRP-conjugated streptavidin (Jackson ImmunoResearch Laboratories, Cat #016-030-084) and visualized by TMB substrate.

In experiment [9] the target is T7, Recombinant human VEGF121 (Peprotech, Cat #100-20A) (human, UniProt P15692-9 27-147).
T7 construct: Bought protein; also called rhVEGF121; rh VEGF121
T7 sequence (looked up): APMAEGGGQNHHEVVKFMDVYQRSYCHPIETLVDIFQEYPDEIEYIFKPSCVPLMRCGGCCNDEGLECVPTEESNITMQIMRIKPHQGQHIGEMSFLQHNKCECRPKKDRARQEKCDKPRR
The experiment is described as follows: ELISA; rhVEGF121 coated, anti-human IgG Fc-HRP detection. The protocol:
Donkey anti-human IgG Fcγ-HRP was used for detection (Jackson ImmunoResearch Laboratories, Cat #709-035-098) and visualized by TMB substrate. OD450 nm readings were measured by Victor 3 (PerkinElmer 1420 Multilabel Counter).

B1: RO-101 VEGF/ANG-2 bispecific surrobody (bispecific antibody, human IgG1, L234A L235A)
heavy 1: not shown
heavy 2: EVQLVESGGGLVKPGGSLRLSCAASGFTFSSYGMHWVRQAPGKGLEWVAGISADSGDKNYADSVKGRFTISRDNAKNSLYLQMNSLRAEDTAVYYCAKEFISWIYTFDYLDYWGQGTLVTVSSASTKGPSVFPLAPSSKSTSGGTAALGCLVKDYFPEPVTVSWNSGALTSGVHTFPAVLQSSGLYSLSSVVTVPSSSLGTQTYICNVNHKPSNTKVDKKVEPKSCDKTHTCPPCPAPEAAGGPSVFLFPPKPKDTLMISRTPEVTCVVVDVSHEDPEVKFNWYVDGVEVHNAKTKPREEQYNSTYRVVSVLTVLHQDWLNGKEYKCKVSNKALPAPIEKTISKAKGQPREPQVCTLPPSRDELTKNQVSLSCAVKGFYPSDIAVEWESNGQPENNYKTTPPVLDSDGSFFLVSKLTVDKSRWQQGNVFSCSVMHEALHNHYTQKSLSLSPG
light: QPVLHQPPAMSSALGTTIRLTCTLRNDHDIGVYSVYWYQQRPGHPPRFLLRYFSQSDKSQGPQVPPRFSGSKDVARNRGYLSISELQPEDEAMYYCAMGARSSVTHVFGSGTQLTVLSQPKATPSVTLFPPSSEELQANKATLVCLMNDFYPGILTVTWKADGTPITQGVEMTTPSKQSNNKYAASSYLSLTPEQWRSRRSYSCQVMHEGSTVEKTVAPAECS
notes: Format SgG1; also called Sample 1
As to B1, the IC50 (usually the concentration needed to halve the response being measured) in experiment [1] is 0.787 nM. The “average EC50” value in experiment [2] stood at 0.0491 nM. Besides, the EC50 (as a rule, the concentration needed to bring the measured effect to its halfway point) in experiment [3] amounted to 0.011 nM; in experiment [5], 0.0334 nM; in experiment [6], 0.0171 nM; in experiment [7] it was 0.0526 nM; in experiment [9] it was 0.0086 nM. Also, the binding result in [4] is “no binding (tested: 100 nM (Log(nM) 2))”. In [8], the Fold worked out at 3.25 fold.
